Test results from publication PMC9482650, “Quantitative fragmentomics allow affinity mapping of interactomes” (Nature Communications, 2022).

Experiments:
Experiment in all cases: holdup assay
Design in all cases: key: below the threshold = too weak to quantify, mostly under pKd 3.1 to 4
Conditions in all cases: plain residues with an end cap or a label only (N-terminal biotin on a linker: ttds)
[1] = target: T1, MLLT4, P55196
T1 sequence (P55196 1002-1103, limits assumed, looked up): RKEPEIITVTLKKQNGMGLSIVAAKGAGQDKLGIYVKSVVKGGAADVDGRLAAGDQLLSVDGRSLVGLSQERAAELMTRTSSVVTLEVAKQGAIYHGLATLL

[2] = target: T2, SIPA1L3, O60292
T2 sequence (O60292 961-1052, limits assumed, looked up): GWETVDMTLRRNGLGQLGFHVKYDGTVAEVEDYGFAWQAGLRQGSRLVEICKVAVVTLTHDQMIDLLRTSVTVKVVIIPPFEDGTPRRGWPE

[3] = target: IL16_2, Q14005
IL16_2, Q14005, sequence (Q14005 350-450): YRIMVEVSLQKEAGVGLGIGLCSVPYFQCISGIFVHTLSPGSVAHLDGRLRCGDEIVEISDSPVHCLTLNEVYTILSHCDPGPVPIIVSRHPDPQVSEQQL

[4] = target: T3, MPDZ_6, O75970
T3 sequence (O75970 1003-1099, limits assumed, looked up): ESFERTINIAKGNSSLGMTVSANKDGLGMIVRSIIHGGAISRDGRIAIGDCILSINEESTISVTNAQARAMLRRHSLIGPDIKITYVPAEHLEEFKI

[5] = target: PARD3B_2, Q8TEW8
PARD3B_2, Q8TEW8, sequence (Q8TEW8 376-471): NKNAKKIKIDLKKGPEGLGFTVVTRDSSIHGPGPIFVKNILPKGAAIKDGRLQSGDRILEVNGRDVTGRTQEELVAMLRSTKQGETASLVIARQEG

[6] = target: CARD14, Q9BXL6
CARD14, Q9BXL6, sequence (Q9BXL6 558-663): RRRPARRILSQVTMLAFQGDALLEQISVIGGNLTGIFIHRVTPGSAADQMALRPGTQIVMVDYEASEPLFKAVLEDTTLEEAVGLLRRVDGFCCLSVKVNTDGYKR

[7] = target: SDCBP_1, O00560
SDCBP_1, O00560, sequence (O00560 111-198): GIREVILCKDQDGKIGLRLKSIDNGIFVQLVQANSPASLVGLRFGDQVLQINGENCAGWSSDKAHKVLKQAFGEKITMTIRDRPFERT

[8] = target: RGS3, P49796-9
RGS3, P49796-9, sequence (P49796 other isoform, or with tags, fused parts or gaps): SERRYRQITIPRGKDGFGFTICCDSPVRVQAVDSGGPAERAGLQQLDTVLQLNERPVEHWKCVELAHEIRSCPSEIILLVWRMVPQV

[9] = target: MAGI3_5, Q5TCQ9
MAGI3_5, Q5TCQ9, sequence (Q5TCQ9 847-941): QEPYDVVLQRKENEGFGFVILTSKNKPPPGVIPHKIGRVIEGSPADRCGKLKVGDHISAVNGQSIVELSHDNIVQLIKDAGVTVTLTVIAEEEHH

[10] = target: RIMS1, Q86UR5
RIMS1, Q86UR5, sequence (Q86UR5 584-692): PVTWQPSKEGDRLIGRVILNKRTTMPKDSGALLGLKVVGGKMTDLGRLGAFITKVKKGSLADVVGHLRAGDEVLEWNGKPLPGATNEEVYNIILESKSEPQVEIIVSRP

[11] = target: DVL2, O14641
DVL2, O14641, sequence (O14641 260-359): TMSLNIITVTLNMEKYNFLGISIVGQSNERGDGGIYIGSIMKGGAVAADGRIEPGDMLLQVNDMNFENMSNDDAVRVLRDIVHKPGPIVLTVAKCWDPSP

[12] = target: T4, PDZD7_1, Q9H5P4
T4 sequence (Q9H5P4 81-178, limits assumed, looked up): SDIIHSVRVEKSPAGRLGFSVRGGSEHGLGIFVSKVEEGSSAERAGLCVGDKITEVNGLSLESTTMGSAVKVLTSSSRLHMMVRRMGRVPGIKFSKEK

[13] = target: T5, PDZD7_2, Q9H5P4
T5 sequence (Q9H5P4 205-303, limits assumed, looked up): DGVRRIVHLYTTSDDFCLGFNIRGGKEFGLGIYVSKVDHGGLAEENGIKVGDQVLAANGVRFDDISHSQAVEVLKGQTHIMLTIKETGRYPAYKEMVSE

[14] = target: T6, MPDZ_7, O75970
T6 sequence (O75970 1146-1253, limits assumed, looked up): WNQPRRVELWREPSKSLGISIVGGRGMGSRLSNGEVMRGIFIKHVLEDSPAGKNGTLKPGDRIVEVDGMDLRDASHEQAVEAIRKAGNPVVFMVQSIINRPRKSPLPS

[15] = target: T7, PARD6G, Q9BYG4
T7 sequence (Q9BYG4 153-261, limits assumed, looked up): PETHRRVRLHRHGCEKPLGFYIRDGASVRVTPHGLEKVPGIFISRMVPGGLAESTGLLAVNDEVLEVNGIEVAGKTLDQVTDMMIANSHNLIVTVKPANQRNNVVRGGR

[16] = target: MAGI1_5, Q96QZ7
MAGI1_5, Q96QZ7, sequence (Q96QZ7 986-1098): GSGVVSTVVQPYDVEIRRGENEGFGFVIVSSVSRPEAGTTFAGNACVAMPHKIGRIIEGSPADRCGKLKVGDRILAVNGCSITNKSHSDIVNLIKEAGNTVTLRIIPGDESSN

[17] = target: MAGI1_3, Q96QZ7
MAGI1_3, Q96QZ7, sequence (Q96QZ7 638-725): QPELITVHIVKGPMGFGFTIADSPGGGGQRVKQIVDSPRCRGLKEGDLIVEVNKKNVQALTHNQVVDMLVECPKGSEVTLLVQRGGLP

[18] = target: T8, MPP5, Q8N3R9
T8 sequence (Q8N3R9 251-346, limits assumed, looked up): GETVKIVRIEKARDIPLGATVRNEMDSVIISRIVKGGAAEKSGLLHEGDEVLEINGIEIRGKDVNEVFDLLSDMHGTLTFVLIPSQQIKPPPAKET

[19] = target: T9, SHROOM4, Q9ULL8
T9 sequence (Q9ULL8 5-102, limits assumed, looked up): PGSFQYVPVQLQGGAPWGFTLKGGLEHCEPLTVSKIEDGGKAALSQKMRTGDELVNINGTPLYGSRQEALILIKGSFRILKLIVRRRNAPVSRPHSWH

[20] = target: LMO7, Q8WWI1
LMO7, Q8WWI1, sequence (Q8WWI1 1037-1138): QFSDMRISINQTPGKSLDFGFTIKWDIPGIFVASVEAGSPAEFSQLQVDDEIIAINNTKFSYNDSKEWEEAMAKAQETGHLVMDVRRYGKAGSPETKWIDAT

[21] = target: T10, PDLIM3, Q53GG5
T10 sequence (Q53GG5 1-94, limits assumed, looked up): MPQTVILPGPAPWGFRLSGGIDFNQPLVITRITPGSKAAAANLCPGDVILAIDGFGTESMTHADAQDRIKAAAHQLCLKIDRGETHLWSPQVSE

[22] = target: T11, TJP3_2, O95049
T11 sequence (O95049 190-282, limits assumed, looked up): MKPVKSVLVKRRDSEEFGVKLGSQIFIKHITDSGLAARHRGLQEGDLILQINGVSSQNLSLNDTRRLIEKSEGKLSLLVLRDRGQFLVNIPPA

[23] = target: T12, PDZD2_3, O15018
T12 sequence (O15018 581-682, limits assumed, looked up): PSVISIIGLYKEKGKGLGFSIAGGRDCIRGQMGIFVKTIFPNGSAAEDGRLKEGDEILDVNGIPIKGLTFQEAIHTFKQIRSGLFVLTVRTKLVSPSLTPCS

[24] = target: RIMS2, Q9UQ26
RIMS2, Q9UQ26, sequence (Q9UQ26 637-758): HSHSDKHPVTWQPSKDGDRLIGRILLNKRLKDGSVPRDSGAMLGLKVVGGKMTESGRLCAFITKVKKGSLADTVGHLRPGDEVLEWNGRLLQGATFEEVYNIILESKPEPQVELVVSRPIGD

[25] = target: T13, PDZD2_4, O15018
T13 sequence (O15018 723-823, limits assumed, looked up): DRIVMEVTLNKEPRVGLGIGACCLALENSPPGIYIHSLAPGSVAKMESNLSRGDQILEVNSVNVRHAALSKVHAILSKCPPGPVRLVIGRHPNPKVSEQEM

| Binder | pKd [1] | pKd [2] | pKd [3] | pKd [4] | pKd [5] | pKd [6] | pKd [7] | pKd [8] | pKd [9] | pKd [10] | pKd [11] | pKd [12] | pKd [13] | pKd [14] | pKd [15] | pKd [16] | pKd [17] | pKd [18] | pKd [19] | pKd [20] | other results |
| --- | --- | --- | --- | --- | --- | --- | --- | --- | --- | --- | --- | --- | --- | --- | --- | --- | --- | --- | --- | --- | --- |
| PKTPPTDTSV [KIR3DL3, Q8N743] | below the threshold | below the threshold | below the threshold | below the threshold | 4.37 | below the threshold | below the threshold | below the threshold | below the threshold | below the threshold | below the threshold | below the threshold | below the threshold | below the threshold | below the threshold | below the threshold | below the threshold | below the threshold | below the threshold | below the threshold | pKd [21]: below the threshold; pKd [22]: below the threshold; pKd [23]: 4.08; pKd [24]: below the threshold; pKd [25]: below the threshold |
| STLTIFETAL [ABCC4, O15439] | below the threshold | below the threshold | below the threshold | below the threshold | below the threshold | below the threshold | below the threshold | below the threshold | 4.39 | below the threshold | below the threshold | 4.25 | 4.54 | 5.01 | below the threshold | 5.11 | below the threshold | below the threshold | below the threshold | below the threshold | pKd [21]: 4.11; pKd [22]: below the threshold; pKd [23]: 4.32; pKd [24]: below the threshold; pKd [25]: below the threshold |
| QSARYRDTEL [TJP2, Q9UDY2] | below the threshold | below the threshold | below the threshold | below the threshold | below the threshold | below the threshold | below the threshold | below the threshold | below the threshold | below the threshold | below the threshold | below the threshold | below the threshold | below the threshold | below the threshold | below the threshold | below the threshold | below the threshold | below the threshold | below the threshold | pKd [21]: below the threshold; pKd [22]: below the threshold; pKd [23]: below the threshold; pKd [24]: below the threshold; pKd [25]: below the threshold |
